Test results: patent publication US20120172295A1 (INDIANA UNIVERSITY RESEARCH AND TECHNOLOGY, published 2012)
Read-outs that look alike come from different tables or passages of the source. Positions of bridges follow the written chain, without caps; N, C: chain ends. Non-standard residues stand in square brackets, D forms with d. Groups on a side chain read outwards from the residue. Primed or numbered codes have the meaning given here. No end group written: not given here. *: point of attachment. PEG 40 kDa″ = 40 kDa polyethylene glycol; Stearoyl = CCCCCCCCCCCCCCCCCC(=O)*; Palmitoyl = CCCCCCCCCCCCCCCC(=O)*; Myristoyl = CCCCCCCCCCCCCC(=O)*; Nle = CCCC[C@H](N)C(=O)O; Orn = NCCC[C@H](N)C(=O)O; Aib = CC(C)(N)C(=O)O

Legend:
Experiment in all cases: cell-based or functional assay
[1] = biological target: T1, GLP-1 receptor (UniProt P43220 24-463, limits assumed)
[2] = biological target: T2, glucagon receptor (UniProt P47871 26-477, limits assumed)
T2 sequence (P47871 26-477 limits assumed): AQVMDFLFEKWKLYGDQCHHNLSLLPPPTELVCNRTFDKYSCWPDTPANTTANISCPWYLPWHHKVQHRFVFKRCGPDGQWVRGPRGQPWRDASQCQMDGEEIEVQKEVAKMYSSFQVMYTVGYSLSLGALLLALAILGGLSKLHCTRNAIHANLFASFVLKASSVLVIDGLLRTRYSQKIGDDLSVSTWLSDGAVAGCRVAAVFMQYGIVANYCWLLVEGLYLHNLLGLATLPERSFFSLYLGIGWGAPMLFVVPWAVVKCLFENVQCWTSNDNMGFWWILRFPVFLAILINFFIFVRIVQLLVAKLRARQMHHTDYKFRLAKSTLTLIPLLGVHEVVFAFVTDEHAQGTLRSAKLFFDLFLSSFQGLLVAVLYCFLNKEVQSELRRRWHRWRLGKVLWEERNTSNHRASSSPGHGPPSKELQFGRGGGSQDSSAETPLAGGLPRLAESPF

[3] = biological target: T1, GLP-1 receptor; remark: listed apart in the source
[4] = biological target: T2, glucagon receptor; remark: listed apart in the source
[5] = biological target: T2, glucagon receptor; remark: listed apart in the source
[6] = biological target: T2, glucagon receptor; remark: listed apart in the source
[7] = biological target: T2, glucagon receptor; remark: listed apart in the source
[8] = biological target: T1, GLP-1 receptor; remark: listed apart in the source
[9] = biological target: T2, glucagon receptor; remark: listed apart in the source
[10] = biological target: T1, GLP-1 receptor; remark: listed apart in the source
[11] = biological target: T2, glucagon receptor; remark: listed apart in the source
[12] = biological target: T1, GLP-1 receptor; remark: listed apart in the source
[13] = biological target: T1, GLP-1 receptor; remark: listed apart in the source
[14] = biological target: T2, glucagon receptor; remark: listed apart in the source
[15] = biological target: T3, GIP receptor (UniProt P48546 22-466)
T3 sequence (looked up): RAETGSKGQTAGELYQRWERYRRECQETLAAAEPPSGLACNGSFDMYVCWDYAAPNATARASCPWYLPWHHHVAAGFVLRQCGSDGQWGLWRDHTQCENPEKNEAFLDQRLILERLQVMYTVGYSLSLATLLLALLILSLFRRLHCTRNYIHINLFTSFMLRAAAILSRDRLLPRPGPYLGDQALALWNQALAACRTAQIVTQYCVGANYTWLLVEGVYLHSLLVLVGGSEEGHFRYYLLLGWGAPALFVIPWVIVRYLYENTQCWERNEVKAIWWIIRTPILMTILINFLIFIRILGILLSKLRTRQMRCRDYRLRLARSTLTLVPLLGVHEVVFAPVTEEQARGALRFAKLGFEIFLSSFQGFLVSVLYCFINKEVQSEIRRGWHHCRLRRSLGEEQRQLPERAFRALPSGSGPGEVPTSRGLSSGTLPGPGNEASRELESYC

[16] = biological target: T1, GLP-1 receptor; remark: listed apart in the source
[17] = biological target: T2, glucagon receptor; remark: listed apart in the source
[18] = biological target: T3, GIP receptor; remark: listed apart in the source
[19] = biological target: T2, glucagon receptor; remark: listed apart in the source

B1: E16 K20-glucagon-NH2 with K10-C16 (peptide)
peptide: HSQGTFTSDK(Palmitoyl)SKYLDERRAKDFVQWLMNT-NH2
[1]
  EC50: 0.09 nM
[2]
  EC50: 0.4 nM
[3]
  EC50: 0.125 nM
[4]
  EC50: 0.236 nM

B2: E16 K20-glucagon-NH2 with K10-W-C18 (peptide)
peptide: HSQGTFTSDK([Trp-Stearoyl])SKYLDERRAKDFVQWLMNT-NH2
[2]
  EC50: 0.05 nM
[4]
  EC50: 0.044 nM

B3: Glucagon (1-29a) Aib2 Lys10-Trp-C16 Aib16 Cys24-40 kD (peptide)
peptide: H[Aib]QGTFTSDK([Trp-Palmitoyl])SKYLD[Aib]RRAQDFVC(PEG 40 kDa)WLMNT-NH2
[5]
  EC50: 0.29 nM

B4: Peptide 50 (SEQ ID NO: 563) (peptide)
peptide: H[Aib]QGTFTSDK(Palmitoyl)SKYLD[Aib]RRAQDFVQWLMNT-NH2
[6]
  EC50: 0.052 nM
  EC50 (20% human plasma): 0.023 nM
[7]
  EC50: 0.572 nM

B5: Peptide dS2E16K20K30-C14 Gluc Amide (peptide)
peptide: HXQGTFTSDYSKYLDERRAKDFVQWLMNTK
modifications: d-Ser at 2; Lys 30 acylated with C14; C-terminal amide
[8]
  EC50: 0.84 nM
[9]
  EC50: 3.53 nM

B6: Peptide dS2K10(C14)E16K20-Gluc Amide (peptide)
peptide: HXQGTFTSDKSKYLDERRAKDFVQWLMNT
modifications: d-Ser at 2; Lys 10 acylated with C14; C-terminal amide
[8]
  EC50: 0.041 nM
[9]
  EC50: 0.155 nM

B7: Peptide dS2E16K20K30-C16 Gluc Amide (peptide)
peptide: HXQGTFTSDYSKYLDERRAKDFVQWLMNTK
modifications: d-Ser at 2; Lys 30 acylated with C16; C-terminal amide
[8]
  EC50: 3.05 nM
[9]
  EC50: 4.89 nM

B8: Peptide dS2K10(C16)E16K20-Gluc Amide (peptide)
peptide: HXQGTFTSDKSKYLDERRAKDFVQWLMNT
modifications: d-Ser at 2; Lys 10 acylated with C16; C-terminal amide
[8]
  EC50: 0.041 nM
[9]
  EC50: 0.076 nM

B9: Peptide X (peptide)
peptide: H[Aib]QGTFTSDYSKYLDEQAAKEFICWLMNT
[10]
  % activity of native GLP-1: 202%
[11]
  % activity of native glucagon: 9.38%

B10: Peptide Y-PEG (peptide)
peptide: H[Aib]QGTFTSDYSKYLDEQAAKEFIC([maleimide-PEG 40 kDa″])WLMNT
modifications: lactam 16-20
[10]
  % activity of native GLP-1: 47.6%
  EC50 (cAMP, CRE-luciferase): 0.059 nM
[11]
  % activity of native glucagon: 8.22%
  EC50 (cAMP, CRE-luciferase): 0.667 nM

B11: NLeu3, E16 Gluc-NH2 (peptide)
peptide: HS[Nle]GTFTSDYSKYLDERRAQDFVQWLMNT-NH2
[12]
  Percent Potency Relative to Native Ligand: 20.6%

B12: mt-345 (peptide)
peptide: HXQGTFTSDYSKYLDEQAAKEFICWLMNGGPSSGAPPPSK
modifications: AIB at 2; Lys 40 acylated with a C14 fatty acyl group
[13]
  % Relative activity: 153%
[14]
  % Relative activity: 193%
  EC50: 0.0183 nM
[15]
  % Relative activity: 4.99%
[16]
  % Relative activity: 153%
[17]
  % Relative activity: 193%
[18]
  % Relative activity: 5%

B13: Orn3, E16 Gluc-NH2 (peptide)
peptide: HS[Orn]GTFTSDYSKYLDERRAQDFVQWLMNT-NH2
[12]
  Percent Potency Relative to Native Ligand: 0.1%

B14: mt-347 (peptide)
peptide: H[Aib]QGTFTSDYSKYLD[Aib]QAAKEFICWLMNGGPSSGAPPPSK(Myristoyl)-NH2
modifications: N-terminus assumed
SMILES: CCCCCCCCCCCCCC(=O)NCCCC[C@H](NC(=O)[C@H](CO)NC(=O)[C@@H]1CCCN1C(=O)[C@@H]1CCCN1C(=O)[C@@H]1CCCN1C(=O)[C@H](C)NC(=O)CNC(=O)[C@H](CO)NC(=O)[C@H](CO)NC(=O)[C@@H]1CCCN1C(=O)CNC(=O)CNC(=O)[C@H](CC(N)=O)NC(=O)[C@H](CCSC)NC(=O)[C@H](CC(C)C)NC(=O)[C@H](Cc1c[nH]c2ccccc12)NC(=O)[C@H](CS)NC(=O)[C@@H](NC(=O)[C@H](Cc1ccccc1)NC(=O)[C@H](CCC(=O)O)NC(=O)[C@H](CCCCN)NC(=O)[C@H](C)NC(=O)[C@H](C)NC(=O)[C@H](CCC(N)=O)NC(=O)C(C)(C)NC(=O)[C@H](CC(=O)O)NC(=O)[C@H](CC(C)C)NC(=O)[C@H](Cc1ccc(O)cc1)NC(=O)[C@H](CCCCN)NC(=O)[C@H](CO)NC(=O)[C@H](Cc1ccc(O)cc1)NC(=O)[C@H](CC(=O)O)NC(=O)[C@H](CO)NC(=O)[C@@H](NC(=O)[C@H](Cc1ccccc1)NC(=O)[C@@H](NC(=O)CNC(=O)[C@H](CCC(N)=O)NC(=O)C(C)(C)NC(=O)[C@@H](N)Cc1c[nH]cn1)[C@@H](C)O)[C@@H](C)O)[C@@H](C)CC)C(N)=O
[13]
  % Relative activity: 67.1%
  EC50: 0.0082 nM
[14]
  % Relative activity: 111%
  EC50: 0.0317 nM
[15]
  % Relative activity: 0.7%
  EC50: 0.383 nM
[16]
  % Relative activity: 67%
[17]
  % Relative activity: 111%
[18]
  % Relative activity: 0.7%

B15: mt-348 (peptide)
peptide: H[Aib]QGTFTSDYSKYLD[Aib]QAAKEFICWLMNGGPSSGAPPPSK-NH2
modifications: N-terminus assumed
SMILES: CC[C@H](C)[C@H](NC(=O)[C@H](Cc1ccccc1)NC(=O)[C@H](CCC(=O)O)NC(=O)[C@H](CCCCN)NC(=O)[C@H](C)NC(=O)[C@H](C)NC(=O)[C@H](CCC(N)=O)NC(=O)C(C)(C)NC(=O)[C@H](CC(=O)O)NC(=O)[C@H](CC(C)C)NC(=O)[C@H](Cc1ccc(O)cc1)NC(=O)[C@H](CCCCN)NC(=O)[C@H](CO)NC(=O)[C@H](Cc1ccc(O)cc1)NC(=O)[C@H](CC(=O)O)NC(=O)[C@H](CO)NC(=O)[C@@H](NC(=O)[C@H](Cc1ccccc1)NC(=O)[C@@H](NC(=O)CNC(=O)[C@H](CCC(N)=O)NC(=O)C(C)(C)NC(=O)[C@@H](N)Cc1c[nH]cn1)[C@@H](C)O)[C@@H](C)O)C(=O)N[C@@H](CS)C(=O)N[C@@H](Cc1c[nH]c2ccccc12)C(=O)N[C@@H](CC(C)C)C(=O)N[C@@H](CCSC)C(=O)N[C@@H](CC(N)=O)C(=O)NCC(=O)NCC(=O)N1CCC[C@H]1C(=O)N[C@@H](CO)C(=O)N[C@@H](CO)C(=O)NCC(=O)N[C@@H](C)C(=O)N1CCC[C@H]1C(=O)N1CCC[C@H]1C(=O)N1CCC[C@H]1C(=O)N[C@@H](CO)C(=O)N[C@@H](CCCCN)C(N)=O
[13]
  % Relative activity: 149%
  EC50: 0.0037 nM
[14]
  % Relative activity: 8.16%
  EC50: 0.433 nM
[15]
  % Relative activity: 0.15%
  EC50: 1.76 nM
[16]
  % Relative activity: 149%
[17]
  % Relative activity: 8.2%
[18]
  % Relative activity: 0.2%

B16: mt-261 (peptide)
peptide: Y[Aib]EGTFTSDYSIYLDKQAA[Aib]EFVNWLLAGGPSSGAPPPSK(Palmitoyl)
[19]
  % Relative activity: 31.6%
[17]
  % Relative activity: 13.4%
